Data as given in US20040156820A1, “Adjuvant combination formulations” (priority 2000, published 2004).

What was measured:
[1] = assay type: in vivo, cynomologous monkeys (Macaca fagscicularis); settings: cynomologous monkeys, five immunizations weeks 0, 4, 8, 18, 23
Method: Immunizations: All intranasal immunizations were delivered with a 100 μl metered dose nasal spray device. All intramuscular injections were given in the quadriceps muscle with needle and syringe. All animals were immunized on a schedule of 0, 4, 8, 18 and 23 weeks.
Group 1: 1000 μg C4 (E9V)-V389.6P peptide in sterile normal saline, final volume 200 μl (100 μl each nostril).
Group 2: 1000 μg C4 (E9V)-V389.6P peptide, 50 μg 529 SE, and 250 μg human GM-CSF, final oil concentration 1%, final volume 1.0 ml (500 μl each quadriceps by IM injection).
All animals were closely monitored for changes in body temperature during the 24 hours immediately following each administration of the immunogen.

Aβ1-42 peptide = test: Reciprocal anti-Aβ1-42 IgG endpoint total and subclass titers (Example 4); assay type: in vivo; settings: Swiss-Webster mice n=10, 30 μg Aβ1-42 s.c. week 0 and 3
Sequence of Aβ1-42 peptide (P05067 672-713): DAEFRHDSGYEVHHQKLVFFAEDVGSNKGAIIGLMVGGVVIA
Method: Formulations were mixed by vortex immediately prior to immunization.
After incubation, wells were washed, and developed with ABTS. Wells were read at 405 nm. Titers were standardized using control sera.
The same protocol was followed for analysis of […] peptide-specific antibody and subclass distribution, except that a concentration of 0.3 μg/ml per microtiter plate was used.
Outbred Swiss-Webster mice were divided into groups of ten mice each. Each group received 30 μg of Aβ1-42 peptide, which corresponds to an internal 42 amino acid long region of APP. […] Mice were immunized subcutaneously in the rump with a total volume of 0.2 ml, divided equally into each of two sites at the base of the tail/rump. Immunizations were administered at week 0 and week 3.
Mice were bled at days 0, 20, 35 and 70. Serum was analyzed from individual mice. Reciprocal endpoint anti-Aβ1-42 peptide IgG endpoint total class and subclass titers were measured from individual sera (n=10 Swiss-Webster) at week 5 and at week 10.

Q: For `CC[C@H](C)[C@H](NC(=O)[C@H](CO)NC(=O)[C@H](CC(C)C)NC(=O)[C@H](CCCNC(=N)N)NC(=O)[C@H](CCC(=O)O)NC(=O)[C@H](CCCNC(=N)N)NC(=O)[C@@H](NC(=O)[C@H](CC(N)=O)NC(=O)[C@H](CC(N)=O)NC(=O)[C@H](CC(N)=O)NC(=O)[C@@H]1CCCN1C(=O)[C@H](CCCNC(=N)N)NC(=O)[C@@H](NC(=O)[C@H](C)NC(=O)[C@H](Cc1ccc(O)cc1)NC(=O)[C@H](CCSC)NC(=O)[C@H](C)NC(=O)[C@H](CCCCN)NC(=O)CNC(=O)[C@@H](NC(=O)[C@@H](NC(=O)[C@H](CCC(N)=O)NC(=O)[C@H](Cc1c[nH]c2ccccc12)NC(=O)[C@H](CCSC)NC(=O)[C@H](CC(N)=O)NC(=O)[C@@H](NC(=O)[C@@H](NC(=O)[C@H](CCC(N)=O)NC(=O)[C@@H](N)CCCCN)[C@@H](C)CC)[C@@H](C)CC)C(C)C)C(C)C)[C@@H](C)O)[C@@H](C)O)C(=O)NCC(=O)N1CCC[C@H]1C(=O)NCC(=O)N[C@@H](CCCNC(=N)N)C(=O)N[C@@H](C)C(=O)N[C@@H](Cc1ccccc1)C(=O)N[C@@H](Cc1ccc(O)cc1)C(=O)N[C@@H](C)C(=O)N[C@@H](CCCNC(=N)N)C(=O)N[C@@H](CCCNC(=N)N)C(=O)O` [C4(E9V)-V389.6P peptide alone], which “Immunogen safety and tolerability” value [1] is on record?
A: extremely well tolerated

Q: For “None: 30 μg Aβ1-42 peptide (SEQ ID NO:6) without adjuvant”, which “Anti-Aβ1-42 Week 5 IgG Endpoint Titers, Geometric Mean” value (Aβ1-42 peptide) is on record?
A: 12,976

Q: And the “Anti-Aβ1-42 Week 10 IgG2a Endpoint Titers, Geometric Mean” value (Aβ1-42 peptide)?
A: 5,910

Q: And the “Anti-Aβ1-42 Week 10 IgG Endpoint Titers, Geometric Mean” value (Aβ1-42 peptide)?
A: 21,426

B1: GM-CSF (10): recombinant murine granulocyte macrophage colony stimulating factor, given with Aβ1-42 peptide (protein, UniProt P01587 18-141, looked up)
Granulocyte-macrophage …: APTRSPITVTRPWKHVEAIKEALNLLDDMPVTLNEEVEVVSNEFSFKKLTCVQTRLKIFEQGLRGNFTKLKGALNMTASYYQTYCPPTPETDCETQVTTYADFIDSLKTFLTDIPFECKKPGQK
Q: For B1, which “Anti-Aβ1-42 Week 5 IgG1 Endpoint Titers, Geometric Mean” value (Aβ1-42 peptide) is on record?
A: 8,654

Q: What about the “Anti-Aβ1-42 Week 5 IgG2a Endpoint Titers, Geometric Mean” value (Aβ1-42 peptide) of the same molecule?
A: 25,554

Q: And the “Anti-Aβ1-42 Week 5 IgG Endpoint Titers, Geometric Mean” value (Aβ1-42 peptide)?
A: 214,497

Q: And the “Anti-Aβ1-42 Week 10 IgG1 Endpoint Titers, Geometric Mean” value (Aβ1-42 peptide)?
A: 8,483

Q: What about the “Anti-Aβ1-42 Week 10 IgG2a Endpoint Titers, Geometric Mean” value (Aβ1-42 peptide) of the same molecule?
A: 64,910

Q: What about the “Anti-Aβ1-42 Week 10 IgG Endpoint Titers, Geometric Mean” value (Aβ1-42 peptide) of the same molecule?
A: 1,049,414
